Entries after “also recorded” stand apart in the source; their conditions may differ.
Columns and labels:
[1] = target: T1, GFP-tagged LRRK2 (Homo sapiens, UniProt Q5S007); experiment: Pulldown of LRRK2 from cell lysate with biotin-labeled peptides; assay type: binding; settings: 10 μM biotin-labeled peptide, lysate of HEK293 cells overexpressing GFP-tagged LRRK2
T1 construct: co-transfecting HEK293 cells with GFP-tagged and strep-tagged full-length LRRK2; expressed in transfected cells; host or cells: HEK293
T1 sequence (Q5S007 whole entry): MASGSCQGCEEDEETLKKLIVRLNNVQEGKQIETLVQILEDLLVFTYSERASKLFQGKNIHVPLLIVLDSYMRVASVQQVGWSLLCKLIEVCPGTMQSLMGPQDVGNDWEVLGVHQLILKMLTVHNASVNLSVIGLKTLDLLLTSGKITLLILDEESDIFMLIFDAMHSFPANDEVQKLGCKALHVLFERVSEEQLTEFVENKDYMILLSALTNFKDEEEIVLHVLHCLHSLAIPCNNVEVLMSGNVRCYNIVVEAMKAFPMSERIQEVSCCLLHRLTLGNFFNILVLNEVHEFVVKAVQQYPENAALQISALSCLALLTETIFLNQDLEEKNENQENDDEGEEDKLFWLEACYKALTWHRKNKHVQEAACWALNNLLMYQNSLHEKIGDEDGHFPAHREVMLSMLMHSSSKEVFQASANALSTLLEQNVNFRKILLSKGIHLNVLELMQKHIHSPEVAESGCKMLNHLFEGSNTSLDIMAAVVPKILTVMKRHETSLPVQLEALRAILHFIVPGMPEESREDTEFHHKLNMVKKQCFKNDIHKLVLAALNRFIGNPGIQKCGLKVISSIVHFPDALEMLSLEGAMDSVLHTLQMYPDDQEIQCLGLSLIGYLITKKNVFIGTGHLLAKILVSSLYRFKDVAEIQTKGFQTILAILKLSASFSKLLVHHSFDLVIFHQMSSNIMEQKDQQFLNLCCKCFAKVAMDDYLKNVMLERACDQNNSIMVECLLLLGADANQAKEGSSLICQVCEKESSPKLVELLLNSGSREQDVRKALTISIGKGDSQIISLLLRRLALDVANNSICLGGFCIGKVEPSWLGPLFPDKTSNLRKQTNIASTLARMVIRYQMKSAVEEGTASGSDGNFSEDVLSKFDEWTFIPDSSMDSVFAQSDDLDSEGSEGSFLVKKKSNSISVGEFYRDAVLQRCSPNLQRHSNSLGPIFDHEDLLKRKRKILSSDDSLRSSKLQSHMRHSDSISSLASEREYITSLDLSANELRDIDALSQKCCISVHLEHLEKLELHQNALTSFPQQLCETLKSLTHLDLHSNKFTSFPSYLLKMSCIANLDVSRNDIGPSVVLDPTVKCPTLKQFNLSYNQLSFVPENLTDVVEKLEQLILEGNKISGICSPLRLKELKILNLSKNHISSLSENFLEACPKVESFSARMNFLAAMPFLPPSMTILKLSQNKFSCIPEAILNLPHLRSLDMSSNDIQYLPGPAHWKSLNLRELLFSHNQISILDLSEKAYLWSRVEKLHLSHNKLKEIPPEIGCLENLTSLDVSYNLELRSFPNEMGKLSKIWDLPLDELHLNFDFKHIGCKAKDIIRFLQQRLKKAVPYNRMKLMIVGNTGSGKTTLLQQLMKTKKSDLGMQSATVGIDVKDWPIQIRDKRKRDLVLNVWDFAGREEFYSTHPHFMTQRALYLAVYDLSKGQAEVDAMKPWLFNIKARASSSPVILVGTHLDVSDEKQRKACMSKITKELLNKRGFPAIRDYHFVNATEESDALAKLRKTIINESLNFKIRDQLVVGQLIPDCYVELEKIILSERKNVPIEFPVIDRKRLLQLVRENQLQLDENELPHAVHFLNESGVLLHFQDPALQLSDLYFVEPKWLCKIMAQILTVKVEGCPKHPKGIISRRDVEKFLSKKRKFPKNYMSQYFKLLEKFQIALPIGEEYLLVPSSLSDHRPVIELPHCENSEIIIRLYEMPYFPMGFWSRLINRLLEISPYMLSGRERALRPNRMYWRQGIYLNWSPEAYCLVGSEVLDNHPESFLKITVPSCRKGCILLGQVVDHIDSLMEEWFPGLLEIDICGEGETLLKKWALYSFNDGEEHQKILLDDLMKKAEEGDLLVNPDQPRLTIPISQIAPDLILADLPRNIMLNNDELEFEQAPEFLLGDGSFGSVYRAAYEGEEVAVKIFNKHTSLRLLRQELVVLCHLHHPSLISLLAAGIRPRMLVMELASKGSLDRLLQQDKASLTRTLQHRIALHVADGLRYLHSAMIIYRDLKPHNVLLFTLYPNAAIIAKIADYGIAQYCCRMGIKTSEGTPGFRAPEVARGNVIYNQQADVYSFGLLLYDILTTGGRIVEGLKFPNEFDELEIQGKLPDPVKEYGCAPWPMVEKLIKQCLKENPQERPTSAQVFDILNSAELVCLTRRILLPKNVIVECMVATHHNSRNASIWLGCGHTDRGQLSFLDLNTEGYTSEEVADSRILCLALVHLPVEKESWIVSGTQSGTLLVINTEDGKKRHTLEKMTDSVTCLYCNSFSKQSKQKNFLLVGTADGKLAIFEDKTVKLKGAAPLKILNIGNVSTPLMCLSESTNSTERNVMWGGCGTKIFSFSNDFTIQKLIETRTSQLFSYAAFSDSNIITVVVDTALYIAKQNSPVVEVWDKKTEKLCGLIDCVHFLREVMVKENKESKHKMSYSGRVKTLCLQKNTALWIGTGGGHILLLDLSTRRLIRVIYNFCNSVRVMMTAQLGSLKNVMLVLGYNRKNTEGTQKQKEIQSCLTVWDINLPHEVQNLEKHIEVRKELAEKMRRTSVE
Method: Pulldown experiments. Fresh lysate of HEK293 cells overexpressing GFP-tagged LRRK2 was mixed and incubated with biotin-labeled peptide (added to a final concentration of 10 μM) and incubated at 4° C. overnight. The mixture was then applied to Magnetic Strep-beads (MagStrep ‘Type3’ XT Beads (IBA, Gottingen, Germany)) and the immune complex was washed twice (10 mM Tris/HCl pH 7.5, 150 mM NaCl) and subjected to immunoblot analysis. Samples were separated on 6% Tris-Glycine gels, transferred onto a nitrocellulose membrane (GE Lifesciences), and processed for western analysis. Membranes were blocked in 5% dry milk in Tris-buffered saline plus Tween-20 for 1 hour and probed with rat monoclonal anti-LRRK2 (clone 24D8 1:1000, Gloeckner lab(69)) and incubated overnight at 4° C. with gentle shaking. Membranes were then washed three times for 10 min at room temperature in PBS containing 0.1% or 0.05% Tween-20 and then incubated for 1 hour with anti-rat IgG-HRP (sc-2750, Santa Cruz Biotechnology). Membranes were again washed three times for 10 min at room temperature in PBS containing 0.1% or 0.05 Tween-20. The membranes were coated with enhanced chemiluminescent (ECL) reagent (WesternSure PREMIUM, Li-COR biosciences), and proteins were detected using the C-Digit Imaging System (Li-COR Biosciences). […]

[2] = system: LRRK2 (R1441G) kinase activity as Rab10 phosphorylation; experiment: Rab10 pT73 phosphorylation immunoblot, HEK293T with LRRK2 R1441G and Rab29; assay type: cell-based; settings: LRRK2 R1441G + Rab29, 10 μM peptide, 12 h / 15 hours
Method: Rab10 Immunoblotting. HEK293T cells were co-transfected at a confluency of 50-60% with Strep-FLAG tagged LRRK2 R1441G and Rab29 as well as Rab10 (both HA-FLAG tagged) using polyethylenimine (PEI, Polyscience) as previously described(46). […] […], cells were lysed in twice, first in lysis buffer (30 mM Tris-HCL (pH7.4), 150 mM NaCl, 0.5% NP-40, complete protease Inhibitor cocktail and phosphatase inhibitor cocktail II & III (Sigma Aldrich) and again after centrifugation in 1% SDS. Cleared lysates were adjusted to 2 μg/μl with 5× Laemmli Buffer and lysis buffer. Samples were used for denaturating electrophoresis using 10% Bis-Tris gels (NuPAGE) and for western blotting onto PVDF membranes. Membranes were blocked with 5% non-fat dry milk dissolved in TBS-T (30 mM Tris-HCL (pH 7.4), 0.1% Tween 20) and separated horizontally at 140 kDa. Primary antibodies were added TBS-T with 5% BSA (pT73 Rab10) 1:2,000 (ab230261) and pS1292 LRRK2 1:2,000 (ab203181)) or total protein antibodies (Rab10(ERP13424) 1:5,000 (ab181367) or LRRK2 (clone 24D8) 1:5,000 (Gloeckner lab)), respectively. Membranes were incubated with HRP-conjugated secondary antibodies diluted in TBS-T with 5% milk prior to imaging using ECL Plus (Pierce) with exposure to photometric films (Hyperfilms, GE Healthcare). […]

Roc-domain stapled peptide formed from SEQ ID NO. 6 DEKQRKAC(Nle)SKITKEXLNKX, X = (S)-2-(4′-pentenyl)alanine; PEG3 linker, FAM or biotin label (DEKQRKACXSKITKEXLNKX; hydrocarbon staple; Nle; PEG3 linker; FAM or biotin; ROC domain petide; (9)..(9) Xaa is norleucine; (16)..(16) Xaa is (S)-2-(4′-pentenyl)alanine; (20)..(20) Xaa is (S)-2-(4′-pentenyl)alanine) [LRIP4]
LRRK2 pulled down by biotin-labeled peptide (immunoblot) [1]: successfully bound to LRRK2; also recorded: pulled down considerably more LRRK2 as compared to LCIP1; also recorded: both peptides bound LRRK2 | Rab10 phosphorylation (pT73) [2]: reduced Rab10 phosphorylation with LRIP4 inducing a more pronounced effect; also recorded: reduced after treatment with LRIP4 or LCIP1, with LRIP4 having a larger inhibitory effect

COR-domain stapled peptide formed from SEQ ID NO. 16 KGEGEXLLKXWK, X = (S)-2-(4′-pentenyl)alanine; PEG3 linker, FAM or biotin label (hydrocarbon staple; PEG3 linker; FAM or biotin; COR domain peptide; (6)..(6) Xaa is (S)-2-(4′-pentenyl)alanine; (10)..(10) Xaa is (S)-2-(4′-pentenyl)alanine) [LCIP1]
LRRK2 pulled down by biotin-labeled peptide (immunoblot) [1]: successfully bound to LRRK2; also recorded: both peptides bound LRRK2 | Rab10 phosphorylation (pT73) [2]: reduced Rab10 phosphorylation
